According to patent US20050227296A1, “Method for indentifying integrin antagonists” (The General Hospital Corporation, a Massachusetts …, priority 1988, published 2005):

What was measured:
[1] = molecular target: T1, EAiC3b (erythrocytes coated with iC3b) (Homo sapiens, UniProt P01024); assay: Erythrocyte binding assay, EAiC3b on immobilized proteins or peptides
T1 construct: EAiC3b (erythrocytes coated with iC3b) were generated by treating EAC3b with purified human factors H and I; tissue Sigma Chemical Co. (C5-deficient human serum); host or cells: human serum C3 deposited on IgM-coated erythrocytes
T1 sequence (P01024 749-1303 limits assumed): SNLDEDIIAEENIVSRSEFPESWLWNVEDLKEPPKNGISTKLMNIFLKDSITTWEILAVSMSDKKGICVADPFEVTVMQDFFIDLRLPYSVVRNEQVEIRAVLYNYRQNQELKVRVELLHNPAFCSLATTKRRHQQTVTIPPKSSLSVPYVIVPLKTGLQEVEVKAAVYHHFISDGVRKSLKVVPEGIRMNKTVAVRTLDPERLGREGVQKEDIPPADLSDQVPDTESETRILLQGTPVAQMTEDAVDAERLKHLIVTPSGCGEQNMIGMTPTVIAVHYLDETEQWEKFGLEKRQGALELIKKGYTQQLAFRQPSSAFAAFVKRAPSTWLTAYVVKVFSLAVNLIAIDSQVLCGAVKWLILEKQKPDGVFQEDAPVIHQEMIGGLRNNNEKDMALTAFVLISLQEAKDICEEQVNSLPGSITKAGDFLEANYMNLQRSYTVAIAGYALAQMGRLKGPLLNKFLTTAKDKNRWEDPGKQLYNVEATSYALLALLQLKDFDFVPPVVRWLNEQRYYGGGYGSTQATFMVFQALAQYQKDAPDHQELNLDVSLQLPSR
T1 sequence (P01024 23-667 partner limits assumed): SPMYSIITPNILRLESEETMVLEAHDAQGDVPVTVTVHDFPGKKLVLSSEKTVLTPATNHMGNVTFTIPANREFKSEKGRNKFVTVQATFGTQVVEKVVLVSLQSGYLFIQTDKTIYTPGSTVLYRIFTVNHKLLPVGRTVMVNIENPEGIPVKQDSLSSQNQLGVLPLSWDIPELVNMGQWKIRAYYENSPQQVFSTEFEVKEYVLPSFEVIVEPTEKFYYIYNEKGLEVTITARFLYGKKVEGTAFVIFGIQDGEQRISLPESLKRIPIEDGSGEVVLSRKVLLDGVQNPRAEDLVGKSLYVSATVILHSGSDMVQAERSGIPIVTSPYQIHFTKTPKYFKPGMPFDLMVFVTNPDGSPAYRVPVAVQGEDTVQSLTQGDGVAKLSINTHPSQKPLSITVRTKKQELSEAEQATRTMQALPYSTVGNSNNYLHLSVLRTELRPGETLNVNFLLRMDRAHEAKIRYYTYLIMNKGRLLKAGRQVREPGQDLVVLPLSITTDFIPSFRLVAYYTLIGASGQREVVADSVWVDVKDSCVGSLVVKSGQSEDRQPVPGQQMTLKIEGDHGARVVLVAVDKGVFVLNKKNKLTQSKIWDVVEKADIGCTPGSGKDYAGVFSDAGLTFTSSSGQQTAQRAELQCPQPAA
T1 sequence (P01024 1321-1663 partner limits assumed): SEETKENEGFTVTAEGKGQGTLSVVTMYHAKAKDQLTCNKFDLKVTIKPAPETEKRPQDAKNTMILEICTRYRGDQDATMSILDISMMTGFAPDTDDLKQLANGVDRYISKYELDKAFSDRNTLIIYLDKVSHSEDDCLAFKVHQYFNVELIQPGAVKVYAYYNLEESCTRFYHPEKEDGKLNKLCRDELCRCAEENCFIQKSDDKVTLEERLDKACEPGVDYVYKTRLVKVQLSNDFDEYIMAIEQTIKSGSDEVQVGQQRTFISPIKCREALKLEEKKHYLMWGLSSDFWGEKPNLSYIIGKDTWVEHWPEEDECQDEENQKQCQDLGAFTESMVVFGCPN
Experimental: Erythrocytes (E) coated with rabbit anti-E IgM (EA) or C3b (EAC3b) were prepared as described by Dana et al. (J. Immunol. 73:153, 1984). EAiC3b (erythrocytes coated with iC3b) were generated by treating EAC3b with purified human factors H and I, or alternatively prepared from EA using C5-deficient human serum (Sigma Chemical Co., St. Louis, Mo.). EAiC3b cells were washed and stored in isotonic veronal-buffered saline (VBS^2+), pH 7.4, containing 0.15 mM calcium-1 mM magnesium (MgCl2+CaCl2) and 1 mg/ml Soybean Trypsin Inhibitor (STI; Worthington Biochemical Co., Freehold, N.J.) at 1.5×10^8 cells/ml. EA, EAC3b or EAiC3b were labeled with 5-(and-6)-carboxy fluorescein (Molecular Probes, Eugene, Oreg.) as described by Michishita et al. (Cell 72:857, 1993).
Immobilization of recombinant proteins and peptides: Purified recombinant A-domain was added to Immulon-2 96-well microtiter plates (Dynatech) overnight. Wells were then washed once with phosphate-buffered-saline, pH 7.4 without metals, and blocked with 1% BSA at room temperature (RT) for one hour, followed by two washings with buffer A (composed of 60% GVBS:VBS^2+ mixed in a 1:3 ratio; Arnaout et al., in Complement Receptor Type 3 at 602-615, Academic Press, FL) containing 1 mM MnCl2 or MgCl2+CaCl2. All the peptides were stocked at 1 mg/ml in water and similarly adsorbed to Immulon-2 96-well plates. Binding of the anti-CD11b mabs to the coated rA-domain was measured by ELISA and read using a plate reader (Molecular Dynamics).
Erythrocyte binding assays: Fluoresceinated EAiC3b, EAC3b or EA were resuspended to 1.5×10^8/ml in buffer A, and added […] to wells containing immobilized proteins or peptides in a total volume of […]. The plates were then briefly centrifuged to settle the erythrocytes, and allowed to incubate at 37° C. for 15 minutes in a humidified incubator with 5% CO2. For the inhibition studies, E were preincubated with each recombinant protein or pure peptide in the presence of 2% BSA for 5 minutes at RT and added to wells coated with immobilized protein or peptide without washing, unless otherwise indicated. At the end of the binding reactions, wells were washed, examined briefly by light microscopy then solubilized with 1% SDS-0.2 N NaOH. Fluorescence was quantified (excitatory wavelength, 490 nm, emission wavelength, 510 nm) using a SLM 8000 fluorometer (SLM Instruments, Urbana, Ill.). In experiments where the effects of individual divalent cations were measured, Ca^2+ and Mg^2+ were replaced with metal-free buffers or with buffers containing each cation at […], unless otherwise indicated. The effect of temperature was evaluated in the presence of 1 mM MnCl2 at 37° C. and at 4° C.

gelatin = assay: A domain binding to gelatin
fibrinogen = molecular target: T2, fibrinogen (Homo sapiens, UniProt P02671+P02675+P02679); assay: A domain binding to fibrinogen
T2 sequence (P02671 20-629 limits assumed): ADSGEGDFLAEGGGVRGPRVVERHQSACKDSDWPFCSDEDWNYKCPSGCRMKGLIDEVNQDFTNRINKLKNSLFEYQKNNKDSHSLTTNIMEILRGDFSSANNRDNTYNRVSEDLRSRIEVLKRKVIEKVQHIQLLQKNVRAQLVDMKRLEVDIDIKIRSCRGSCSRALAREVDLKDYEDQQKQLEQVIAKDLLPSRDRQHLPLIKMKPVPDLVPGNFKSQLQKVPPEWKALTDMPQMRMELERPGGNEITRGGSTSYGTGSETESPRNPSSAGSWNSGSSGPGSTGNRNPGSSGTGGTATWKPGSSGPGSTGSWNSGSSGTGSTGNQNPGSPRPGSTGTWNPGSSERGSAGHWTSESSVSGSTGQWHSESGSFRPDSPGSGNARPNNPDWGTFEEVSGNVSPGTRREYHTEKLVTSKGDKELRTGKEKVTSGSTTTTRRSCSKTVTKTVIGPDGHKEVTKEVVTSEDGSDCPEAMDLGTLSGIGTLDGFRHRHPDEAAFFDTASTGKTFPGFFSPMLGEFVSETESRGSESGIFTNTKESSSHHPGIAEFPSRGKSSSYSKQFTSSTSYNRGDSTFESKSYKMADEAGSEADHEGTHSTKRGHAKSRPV
T2 sequence (P02675 31-491): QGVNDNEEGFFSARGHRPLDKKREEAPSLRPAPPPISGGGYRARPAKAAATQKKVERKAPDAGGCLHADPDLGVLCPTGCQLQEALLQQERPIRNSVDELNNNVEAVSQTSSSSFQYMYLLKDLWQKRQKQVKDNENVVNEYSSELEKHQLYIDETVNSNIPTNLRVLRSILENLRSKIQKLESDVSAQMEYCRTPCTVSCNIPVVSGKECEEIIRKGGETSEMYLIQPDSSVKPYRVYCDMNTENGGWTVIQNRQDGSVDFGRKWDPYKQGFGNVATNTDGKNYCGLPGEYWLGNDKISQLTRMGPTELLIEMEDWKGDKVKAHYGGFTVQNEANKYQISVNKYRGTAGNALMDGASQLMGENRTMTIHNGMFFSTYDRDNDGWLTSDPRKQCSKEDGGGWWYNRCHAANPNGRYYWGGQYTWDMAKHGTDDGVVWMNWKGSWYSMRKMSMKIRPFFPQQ
T2 sequence (P02679 27-453): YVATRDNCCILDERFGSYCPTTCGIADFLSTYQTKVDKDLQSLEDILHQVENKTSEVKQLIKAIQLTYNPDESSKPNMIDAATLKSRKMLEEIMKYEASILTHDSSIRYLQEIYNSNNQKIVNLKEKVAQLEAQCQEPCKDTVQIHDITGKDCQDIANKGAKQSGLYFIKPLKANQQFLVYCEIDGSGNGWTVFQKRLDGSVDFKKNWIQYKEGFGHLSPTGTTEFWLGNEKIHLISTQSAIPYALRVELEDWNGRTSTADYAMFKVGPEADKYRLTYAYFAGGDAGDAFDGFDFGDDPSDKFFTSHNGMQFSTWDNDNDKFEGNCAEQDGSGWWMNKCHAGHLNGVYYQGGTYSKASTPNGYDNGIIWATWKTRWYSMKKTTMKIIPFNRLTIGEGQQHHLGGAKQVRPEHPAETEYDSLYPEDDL

In the case of “r11bA: recombinant human CD11b A domain (Cys128 to Glu321), expressed as GST fusion protein, used as such or after thrombin cleavage”, the “binding of the A domain to iC3b” value [1] was “binds”, the “EAiC3b binding to rA-domain with MnCl2, MgCl2 or MgCl2 plus CaCl2” value ([1]; 1 mM MnCl2, 1 mM MgCl2 or 1 mM MgCl2 and 0.15 mM CaCl2) was “supported” and the “temperature dependency of EAiC3b binding to rA-domain” value ([1]; 37° C. and 4° C., 1 mM MnCl2) was “temperature-independent”. The “direct binding of EAiC3b to immobilized protein or peptide” value ([1]; 37° C., divalent cations) was “bound”, the “EAiC3b binding to rA-domain with CaCl2 alone” value ([1]; CaCl2 alone (0.15-1 mM)) was “ineffective” and the “EAiC3b binding to rA-domain, divalent cations omitted or EDTA included” value ([1]; no divalent cations or EDTA) was “No specific binding”. For the same substance, the “binding of the A domain to gelatin” value (gelatin) was “binds” and the “binding of the A domain to fibrinogen” value (fibrinogen) was “binds”.
